What all share (experiment): SEC-MALS
A general note: SEC sorts molecules by how far they enter the pores of the column.

For data set [1], the target named is CdChdC variant H118A/Y135A (Corynebacterium diphtheriae) (UniProt Q6NGV6).
The target of data set [2] is CdChdC variant H118A (Corynebacterium diphtheriae) (UniProt Q6NGV6).
Data set [3] deals with CdChdC variant Y135A (Corynebacterium diphtheriae) (UniProt Q6NGV6).
The data set “SEC-MALS” deals with the molecule itself.

The stoichiometry N is the number of molecules, sites or subunits per partner or assembly.

“CdChdC variant H118A/Y135A (from UniProt Q6NGV6 1-234) (enzyme)” yielded a stoichiometry N in data set [1] of 5.

For “CdChdC variant H118A (from UniProt Q6NGV6 1-234) (enzyme)”, the stoichiometry N in data set [2] is 5.

“CdChdC variant Y135A (from UniProt Q6NGV6 1-234) (enzyme)”: the stoichiometry N in data set [3] is 5.

B1: coproheme decarboxylase from Corynebacterium diphtheriae (CdChdC), wild-type (enzyme)
chain: MAEKLNFEELNSMQRYSQFAVFRAIPGALGSDRAEIVAQAQSFFDGLETAGKVEVRGIYDLAGCRAEADFMIWWIAEEFEEIQAAFARFRRETVLGQVSEVAWLGNSLHRPAEFNRSHLPSFIMGEIPGDWITVYPFVRSYDWYIMDPQKRRKILAEHGQAARDFPDVRANTVPAFALGDYEWMLAFEAPRLDRIVDLMHKMRYTEARLHVREETPFFTGRRVSEVSELVNVLP
As for B1, the “stoichiometry N” value in the data set “SEC-MALS” was 5.

Source of the values: article PMC7235987 (ACS Catalysis, 2020).
